Data reported in patent US20220227866A1 (VELOSBIO, published 2022).
Values joined by “and” are separate entries in the source; they are usually repeats but may differ in a detail not shown here. Equal entries are not always repeated.

B1: Bispecific construct 14 (bispecific antibody, human IgG1, kappa)
heavy 1: not shown
heavy 2: QVQLVQSGAEVKKPGASVKVSCKASGYTFTRYTMHWVRQAPGQGLEWMGYINPSRGYTNYNQKFKDRVTLTTDKSSSTAYMELSSLRSEDTAVYYCARYYDDHYSLDYWGQGTLVTVSSGGGGSGGGGSGGGGSGGGGSDIQMTQSPSSLSASVGDRVTITCSASSSVSYMNWYQQKPGKAPKRLIYDTSKLASGVPSRFSGSGSGTDFTLTISSLQPEDFATYYCQQWSSNPFTFGQGTKLEIKEPKSSDKTHTCPPCPAPEAAGAPSVFLFPPKPKDTLMISRTPEVTCVVVDVSHEDPEVKFNWYVDGVEVHNAKTKPREEQYNSTYRVVSVLTVLHQDWLNGKEYKCKVSNKALPAPIEKTISKAKGQPREPQVYTLPPSRDELTKNQVSLSCAVKGFYPSDIAVEWESNGQPENNYKTTPPVLDSDGSFFLVSKLTVDKSRWQQGNVFSCSVMHEALHNHYTQKSLSLSPGK
light: DIVMTQTPLSLPVTPGEPASISCRASKSISKYLAWYQQKPGQAPRLLIYSGSTLQSGIPPRFSGSGYGTDFTLTINNIESEDAAYYFCQQHDESPYTFGEGTKVEIKRTVAAPSVFIFPPSDEQLKSGTASVVCLLNNFYPREAKVQWKVDNALQSGNSQESVTEQDSKDSTYSLSSTLTLSKADYEKHKVYACEVTHQGLSSPVTKSFNRGEC
notes: anti-CD3 scFv Ab9; ROR1 arm Ab1; valency 1/1
B2: Bispecific construct 4 (bispecific antibody, human IgG1, kappa)
heavy: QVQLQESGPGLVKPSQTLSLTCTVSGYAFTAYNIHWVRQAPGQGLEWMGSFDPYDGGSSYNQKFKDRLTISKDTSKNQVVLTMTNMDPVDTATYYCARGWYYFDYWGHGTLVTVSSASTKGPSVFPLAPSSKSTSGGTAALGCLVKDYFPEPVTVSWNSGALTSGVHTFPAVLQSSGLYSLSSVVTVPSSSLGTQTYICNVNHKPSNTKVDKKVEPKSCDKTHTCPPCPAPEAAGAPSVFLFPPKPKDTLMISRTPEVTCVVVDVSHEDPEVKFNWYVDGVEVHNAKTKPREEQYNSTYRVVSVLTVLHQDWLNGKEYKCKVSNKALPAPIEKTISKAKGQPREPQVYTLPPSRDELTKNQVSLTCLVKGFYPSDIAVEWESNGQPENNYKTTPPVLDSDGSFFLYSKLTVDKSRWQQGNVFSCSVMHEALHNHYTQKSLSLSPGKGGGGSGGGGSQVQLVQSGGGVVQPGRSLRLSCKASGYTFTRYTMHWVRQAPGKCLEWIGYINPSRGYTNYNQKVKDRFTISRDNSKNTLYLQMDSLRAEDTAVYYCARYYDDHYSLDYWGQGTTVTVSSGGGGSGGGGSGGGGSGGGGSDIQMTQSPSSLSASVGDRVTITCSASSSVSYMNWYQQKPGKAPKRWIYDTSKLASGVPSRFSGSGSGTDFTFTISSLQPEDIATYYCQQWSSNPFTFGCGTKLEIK
light: B1 light
notes: disulfide-stabilized anti-CD3 scFv Ab8; ROR1 arm Ab1; valency 2/2
B3: Bispecific construct 5 (bispecific antibody, human IgG1, kappa)
heavy: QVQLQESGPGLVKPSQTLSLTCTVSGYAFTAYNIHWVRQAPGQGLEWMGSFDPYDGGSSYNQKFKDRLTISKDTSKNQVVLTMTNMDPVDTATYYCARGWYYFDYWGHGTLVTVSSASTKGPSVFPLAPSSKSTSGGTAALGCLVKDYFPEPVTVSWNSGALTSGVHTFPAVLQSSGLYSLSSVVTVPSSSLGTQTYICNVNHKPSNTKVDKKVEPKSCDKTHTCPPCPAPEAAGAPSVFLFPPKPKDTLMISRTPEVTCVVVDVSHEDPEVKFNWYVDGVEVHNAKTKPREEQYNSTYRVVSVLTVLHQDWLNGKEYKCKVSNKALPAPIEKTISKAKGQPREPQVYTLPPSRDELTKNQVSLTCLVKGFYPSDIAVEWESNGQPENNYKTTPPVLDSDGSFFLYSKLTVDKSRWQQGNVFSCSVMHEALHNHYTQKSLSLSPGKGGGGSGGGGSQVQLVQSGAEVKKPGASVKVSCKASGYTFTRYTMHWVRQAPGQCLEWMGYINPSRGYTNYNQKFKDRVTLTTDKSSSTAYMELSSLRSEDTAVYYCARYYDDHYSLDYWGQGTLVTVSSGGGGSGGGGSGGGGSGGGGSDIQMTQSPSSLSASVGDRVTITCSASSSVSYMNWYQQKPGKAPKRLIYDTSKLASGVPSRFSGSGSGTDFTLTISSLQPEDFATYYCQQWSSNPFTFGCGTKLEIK
light: B1 light
notes: disulfide-stabilized anti-CD3 scFv Ab9; ROR1 arm Ab1; valency 2/2
B4: Bispecific construct 3 (bispecific antibody, human IgG1, kappa)
heavy: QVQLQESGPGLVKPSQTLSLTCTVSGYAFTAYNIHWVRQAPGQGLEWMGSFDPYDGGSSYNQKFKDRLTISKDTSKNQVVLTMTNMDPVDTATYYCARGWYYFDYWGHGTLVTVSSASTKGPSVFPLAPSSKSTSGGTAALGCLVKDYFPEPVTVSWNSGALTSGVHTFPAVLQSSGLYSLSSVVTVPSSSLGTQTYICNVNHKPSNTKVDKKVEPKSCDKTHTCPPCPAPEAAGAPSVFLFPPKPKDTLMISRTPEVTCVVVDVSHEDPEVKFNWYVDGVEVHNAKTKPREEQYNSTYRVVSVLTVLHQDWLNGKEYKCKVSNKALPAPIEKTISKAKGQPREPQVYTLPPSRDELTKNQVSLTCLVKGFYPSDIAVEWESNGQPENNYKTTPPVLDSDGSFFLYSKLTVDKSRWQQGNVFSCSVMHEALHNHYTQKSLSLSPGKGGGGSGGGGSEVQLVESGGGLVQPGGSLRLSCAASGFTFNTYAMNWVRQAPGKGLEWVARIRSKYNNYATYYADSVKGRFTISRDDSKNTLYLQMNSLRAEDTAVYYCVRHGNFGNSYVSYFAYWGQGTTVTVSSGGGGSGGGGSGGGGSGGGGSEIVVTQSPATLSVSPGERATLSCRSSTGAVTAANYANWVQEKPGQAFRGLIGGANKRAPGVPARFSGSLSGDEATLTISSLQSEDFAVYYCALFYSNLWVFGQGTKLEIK
light: B1 light
notes: anti-CD3 scFv Ab10 (SP34-based); ROR1 arm Ab1; valency 2/2
B5: Bispecific construct 6 (bispecific antibody, human IgG1, kappa)
heavy: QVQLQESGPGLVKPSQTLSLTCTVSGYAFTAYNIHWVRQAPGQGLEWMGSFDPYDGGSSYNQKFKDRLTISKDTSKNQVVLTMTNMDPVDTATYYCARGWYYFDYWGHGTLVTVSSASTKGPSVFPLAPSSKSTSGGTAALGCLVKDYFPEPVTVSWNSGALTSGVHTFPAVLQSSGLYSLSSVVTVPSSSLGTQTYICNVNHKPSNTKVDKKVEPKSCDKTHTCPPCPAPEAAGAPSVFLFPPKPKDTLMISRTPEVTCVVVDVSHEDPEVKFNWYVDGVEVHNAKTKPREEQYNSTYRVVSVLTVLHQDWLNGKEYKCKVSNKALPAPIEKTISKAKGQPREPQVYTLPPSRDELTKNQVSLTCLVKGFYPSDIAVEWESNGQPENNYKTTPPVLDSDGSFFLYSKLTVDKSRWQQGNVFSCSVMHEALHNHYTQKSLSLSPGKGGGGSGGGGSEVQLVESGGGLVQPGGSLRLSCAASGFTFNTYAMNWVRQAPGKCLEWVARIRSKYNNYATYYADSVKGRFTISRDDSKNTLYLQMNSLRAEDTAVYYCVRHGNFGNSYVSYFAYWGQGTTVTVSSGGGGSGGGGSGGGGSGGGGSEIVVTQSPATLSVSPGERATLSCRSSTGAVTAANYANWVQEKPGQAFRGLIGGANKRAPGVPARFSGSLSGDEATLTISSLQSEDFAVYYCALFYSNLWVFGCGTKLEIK
light: B1 light
notes: disulfide-stabilized anti-CD3 scFv Ab10; ROR1 arm Ab1; valency 2/2
B6: Bispecific construct 15 (bispecific antibody, human IgG1, kappa)
heavy 1: not shown
heavy 2: EVQLVESGGGLVQPGGSLRLSCAASGFTFNTYAMNWVRQAPGKGLEWVARIRSKYNNYATYYADSVKGRFTISRDDSKNTLYLQMNSLRAEDTAVYYCVRHGNFGNSYVSYFAYWGQGTTVTVSSGGGGSGGGGSGGGGSGGGGSEIVVTQSPATLSVSPGERATLSCRSSTGAVTAANYANWVQEKPGQAFRGLIGGANKRAPGVPARFSGSLSGDEATLTISSLQSEDFAVYYCALFYSNLWVFGQGTKLEIKEPKSSDKTHTCPPCPAPEAAGAPSVFLFPPKPKDTLMISRTPEVTCVVVDVSHEDPEVKFNWYVDGVEVHNAKTKPREEQYNSTYRVVSVLTVLHQDWLNGKEYKCKVSNKALPAPIEKTISKAKGQPREPQVYTLPPSRDELTKNQVSLSCAVKGFYPSDIAVEWESNGQPENNYKTTPPVLDSDGSFFLVSKLTVDKSRWQQGNVFSCSVMHEALHNHYTQKSLSLSPGK
light: B1 light
notes: anti-CD3 scFv Ab10 (SP34-based); ROR1 arm Ab1; valency 1/1
B7: Bispecific construct 11 (bispecific antibody, human IgG1, kappa)
heavy: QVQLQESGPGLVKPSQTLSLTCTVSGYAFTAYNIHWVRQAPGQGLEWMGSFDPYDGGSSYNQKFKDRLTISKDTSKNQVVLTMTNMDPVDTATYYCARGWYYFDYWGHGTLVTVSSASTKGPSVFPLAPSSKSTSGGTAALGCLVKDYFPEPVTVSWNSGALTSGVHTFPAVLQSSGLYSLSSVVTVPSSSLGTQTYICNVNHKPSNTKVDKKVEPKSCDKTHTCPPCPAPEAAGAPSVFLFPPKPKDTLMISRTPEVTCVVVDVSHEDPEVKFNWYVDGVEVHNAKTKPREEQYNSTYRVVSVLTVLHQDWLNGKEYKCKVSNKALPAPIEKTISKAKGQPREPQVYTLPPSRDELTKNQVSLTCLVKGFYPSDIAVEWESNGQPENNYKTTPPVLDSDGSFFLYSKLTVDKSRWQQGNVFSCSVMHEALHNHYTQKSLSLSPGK
light: DIVMTQTPLSLPVTPGEPASISCRASKSISKYLAWYQQKPGQAPRLLIYSGSTLQSGIPPRFSGSGYGTDFTLTINNIESEDAAYYFCQQHDESPYTFGEGTKVEIKRTVAAPSVFIFPPSDEQLKSGTASVVCLLNNFYPREAKVQWKVDNALQSGNSQESVTEQDSKDSTYSLSSTLTLSKADYEKHKVYACEVTHQGLSSPVTKSFNRGECGGGGSGGGGSQVQLVQSGAEVKKPGASVKVSCKASGYTFTRYTMHWVRQAPGQCLEWMGYINPSRGYTNYNQKFKDRVTLTTDKSSSTAYMELSSLRSEDTAVYYCARYYDDHYSLDYWGQGTLVTVSSGGGGSGGGGSGGGGSGGGGSDIQMTQSPSSLSASVGDRVTITCSASSSVSYMNWYQQKPGKAPKRLIYDTSKLASGVPSRFSGSGSGTDFTLTISSLQPEDFATYYCQQWSSNPFTFGCGTKLEIK
notes: as for B3
B8: Bispecific construct 10 (bispecific antibody, human IgG1, kappa)
heavy: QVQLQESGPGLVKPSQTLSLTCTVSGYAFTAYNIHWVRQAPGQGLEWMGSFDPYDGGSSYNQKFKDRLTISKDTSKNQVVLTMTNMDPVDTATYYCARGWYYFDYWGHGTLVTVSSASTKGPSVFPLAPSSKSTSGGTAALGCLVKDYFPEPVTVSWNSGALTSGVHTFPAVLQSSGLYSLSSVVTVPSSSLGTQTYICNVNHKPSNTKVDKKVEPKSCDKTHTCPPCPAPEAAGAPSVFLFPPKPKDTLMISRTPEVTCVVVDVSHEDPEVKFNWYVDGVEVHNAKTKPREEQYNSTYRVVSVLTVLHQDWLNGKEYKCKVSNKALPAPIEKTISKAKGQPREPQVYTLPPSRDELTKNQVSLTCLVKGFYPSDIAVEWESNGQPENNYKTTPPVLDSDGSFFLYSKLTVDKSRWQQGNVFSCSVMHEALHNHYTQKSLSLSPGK
light: DIVMTQTPLSLPVTPGEPASISCRASKSISKYLAWYQQKPGQAPRLLIYSGSTLQSGIPPRFSGSGYGTDFTLTINNIESEDAAYYFCQQHDESPYTFGEGTKVEIKRTVAAPSVFIFPPSDEQLKSGTASVVCLLNNFYPREAKVQWKVDNALQSGNSQESVTEQDSKDSTYSLSSTLTLSKADYEKHKVYACEVTHQGLSSPVTKSFNRGECGGGGSGGGGSQVQLVQSGGGVVQPGRSLRLSCKASGYTFTRYTMHWVRQAPGKCLEWIGYINPSRGYTNYNQKVKDRFTISRDNSKNTLYLQMDSLRAEDTAVYYCARYYDDHYSLDYWGQGTTVTVSSGGGGSGGGGSGGGGSGGGGSDIQMTQSPSSLSASVGDRVTITCSASSSVSYMNWYQQKPGKAPKRWIYDTSKLASGVPSRFSGSGSGTDFTFTISSLQPEDIATYYCQQWSSNPFTFGCGTKLEIK
notes: as for B2

biological target: T1, human ROR1 on cells (human, UniProt Q01973 30-937); assay: cell-based or functional assay
T1 sequence (Q01973 30-937 limits assumed): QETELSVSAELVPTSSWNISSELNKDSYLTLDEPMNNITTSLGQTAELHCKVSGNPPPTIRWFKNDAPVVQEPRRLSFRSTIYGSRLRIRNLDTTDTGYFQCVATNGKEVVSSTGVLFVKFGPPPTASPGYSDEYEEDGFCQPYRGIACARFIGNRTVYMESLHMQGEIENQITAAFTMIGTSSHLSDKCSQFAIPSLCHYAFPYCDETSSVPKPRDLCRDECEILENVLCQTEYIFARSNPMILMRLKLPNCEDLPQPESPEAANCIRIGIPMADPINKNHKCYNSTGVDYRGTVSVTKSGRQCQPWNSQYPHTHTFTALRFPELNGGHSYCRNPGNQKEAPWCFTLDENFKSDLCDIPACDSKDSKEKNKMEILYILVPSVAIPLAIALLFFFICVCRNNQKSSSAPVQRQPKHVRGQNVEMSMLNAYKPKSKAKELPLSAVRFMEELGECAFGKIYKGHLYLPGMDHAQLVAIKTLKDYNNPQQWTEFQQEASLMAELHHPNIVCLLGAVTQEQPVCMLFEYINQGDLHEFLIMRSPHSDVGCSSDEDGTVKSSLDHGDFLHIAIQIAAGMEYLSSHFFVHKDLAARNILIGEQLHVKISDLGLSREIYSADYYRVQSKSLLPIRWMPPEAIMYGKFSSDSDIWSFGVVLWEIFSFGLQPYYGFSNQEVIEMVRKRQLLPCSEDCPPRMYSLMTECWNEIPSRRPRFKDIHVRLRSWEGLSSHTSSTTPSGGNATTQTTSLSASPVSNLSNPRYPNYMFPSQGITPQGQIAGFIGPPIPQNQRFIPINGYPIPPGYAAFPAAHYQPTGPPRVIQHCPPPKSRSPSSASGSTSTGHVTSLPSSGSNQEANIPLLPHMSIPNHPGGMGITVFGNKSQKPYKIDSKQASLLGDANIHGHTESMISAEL

EC50, LDH release, ROR1-transfected MEC | Max. LDH Release, ROR1-transfected MEC | Binder
5 ng/mL and 40 pM | 48% | B1

biological target: T1, human ROR1 on cells; assay: flow cytometry on JeKo-1 cells
Experimental: ROR1 binding was quantitated using both ROR1-transfected MEC cells and JeKo-1 cells. For each condition, 2.5E5 cells were used. The cells were placed in 50 μL of PBS with 2% FBS. Next, the cells were diluted with an equal volume of 2× stock of the test bispecific binding molecule. The cells and antibody were co-incubated on ice for 20 min. The cells were then washed 3 times with 300 μL of FACS buffer and were resuspended in 100 μL of anti-human Fc-PE conjugate antibody (Invitrogen cat. #12499882) and incubated on ice with reduced light for 20 min. Subsequently, the cells were washed 3 times with 300 μL of FACS buffer and fixed with 2% paraformaldehyde for 10 min at 25° C. The cells then were washed 2 times with 300 μL of FACS buffer and analyzed on a Miltenyi MACSQuant Analyzer.
The influence of ROR expression levels on binding of the bispecific constructs was assessed by flow cytometry using JeKo-1 cells. JeKo-1 cells express lower levels of ROR (˜13,000 copies/cell) than the ROR1-transfected MEC cells (˜56,000 copies/cell). All constructs bound JeKo-1 cells (FIG. 5). […] Specifically, monovalent ROR1 constructs generally bound more weakly than the bivalent constructs (FIG. 5, Panel A, compare constructs 14 and 15 with other constructs; FIG. 5, Panel C, compare constructs 15-17 with other constructs).

EC50 (read off the curve) | Binder
~0.02 µg/mL | B2
~0.02 µg/mL | B3

biological target: T2, human CD3 on Jurkat cells (human, UniProt P09693 23-182; P04234 22-171; P07766 23-207); assay: flow cytometry on Jurkat cells
T2 construct: GenBank NP_000064.1, NP_000723.1, NP_000724.1
Experimental: To quantitate CD3 binding, 2.5E5 Jurkat cells were used for each condition. A 2× stock of the cells was made by resuspending the cells to 5E6/mL by placing in 50 μL of PBS with 2% FBS. Next, the cells were diluted with an equal volume of 2× stock of the test bispecific binding molecule. The cells and antibody were co-incubated on ice for 20 min. The cells were then washed 3 times with 300 μL of FACS buffer and were resuspended in 100 μL of goat anti-human Fc-PE conjugate antibody (Invitrogen cat. #12499882) at 1:500 dilution and incubated on ice with reduced light for 20 min. The cells were then washed 3 times with 300 μL of FACS buffer and fixed with 2% paraformaldehyde for 10 min at 25° C. The cells were washed 2 times with 300 μL of FACS buffer and analyzed on a Miltenyi MACSQuant Analyzer.

T2 sequence (P09693 23-182 limits assumed, chain 1 of 3): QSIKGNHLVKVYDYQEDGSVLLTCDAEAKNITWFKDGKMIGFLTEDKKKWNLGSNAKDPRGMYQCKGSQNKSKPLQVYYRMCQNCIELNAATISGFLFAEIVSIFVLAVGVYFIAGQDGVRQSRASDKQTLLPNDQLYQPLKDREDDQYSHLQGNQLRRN
T2 sequence (P04234 22-171 limits assumed, chain 2 of 3): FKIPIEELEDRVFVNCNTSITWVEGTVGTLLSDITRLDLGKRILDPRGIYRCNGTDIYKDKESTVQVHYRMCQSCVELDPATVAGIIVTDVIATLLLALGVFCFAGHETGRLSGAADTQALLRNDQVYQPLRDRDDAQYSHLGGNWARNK
T2 sequence (P07766 23-207 limits assumed, chain 3 of 3): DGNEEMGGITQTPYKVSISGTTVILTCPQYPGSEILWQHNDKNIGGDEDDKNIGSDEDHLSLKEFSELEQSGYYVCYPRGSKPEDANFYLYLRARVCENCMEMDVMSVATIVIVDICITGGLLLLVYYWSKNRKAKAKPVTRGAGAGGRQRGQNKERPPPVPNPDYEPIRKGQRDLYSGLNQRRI

binding result | Binder
binds | B2
binds | B1
binds | B4
binds | B5
binds | B3
binds | B6
binds | B7
binds | B8

biological target: T3, recombinant human ROR1 extracellular domain (human, UniProt Q01973 30-406); assay: ELISA, immobilised ROR1 ECD, construct titrated
T3 construct: Bought (Acro Biosystems cat. R01-H522Y); whole entry named; also called ROR1-ECD; immobilized ROR1
Experimental: A 96-well Costar-3366 plate was coated with 50 μL/well of 2 μg/mL […] (Acro Biosystems cat. #R01-H522Y) in PBS overnight at 4° C. The plate was rinsed once with PBS containing 0.05% Tween 20 (PBS-T) and blocked with 100 μL/well of 5% non-fat milk in PBS (5% M-P) for 1 h at 25° C. Antibody samples were serially diluted 2-fold using 5% M-P and were incubated for 1 h at 25° C. (50 μL/well). The plate was washed three times with PBS-T and 50 μL/well anti-human kappa, HRP conjugate (Southern Biotech cat. #2060-05) diluted 10,000-fold in 5% M-P was added for 1 h at 25° C. The plate was washed three times with PBS-T, developed with 50 μL/well 1-Step Ultra TMB-ELISA (Thermo Scientific cat. #34028). The reaction was terminated by the addition of 2 N H₂SO₄ and the A450 was determined using a Spectramax plate reader.
Next, the binding of bispecific binding molecules to ROR was characterized by ELISA using recombinantly-expressed extracellular domain of RORL. ROR was immobilized on a microtiter plate, the bispecific binding molecules were titrated, and binding was quantitated with an anti-human kappa-HRP reagent. Consistent with the cell binding data, all constructs bound ROR1 in a concentration-dependent manner (FIG. 6). Moreover, monovalent ROR1 constructs 13-15 bound less tightly than all but two of the bivalent constructs.

T3 sequence (Q01973 30-406 limits assumed): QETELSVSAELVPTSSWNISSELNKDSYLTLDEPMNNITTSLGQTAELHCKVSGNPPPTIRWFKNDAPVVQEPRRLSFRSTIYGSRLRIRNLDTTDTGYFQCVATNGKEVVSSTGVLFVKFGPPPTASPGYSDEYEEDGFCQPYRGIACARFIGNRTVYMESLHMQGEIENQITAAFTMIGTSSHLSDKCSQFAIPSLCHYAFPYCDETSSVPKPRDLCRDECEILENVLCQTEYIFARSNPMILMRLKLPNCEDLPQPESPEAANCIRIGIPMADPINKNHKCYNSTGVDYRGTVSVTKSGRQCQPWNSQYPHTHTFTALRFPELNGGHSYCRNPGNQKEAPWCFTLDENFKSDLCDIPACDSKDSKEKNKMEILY

Kd | Binder
0.085 nM | B2
0.408 nM | B1
0.233 nM | B4
0.033 nM | B5
0.055 nM | B3
0.301 nM | B6
0.092 nM | B7
0.144 nM | B8

biological target: T4, soluble biotinylated human ROR1 extracellular domain (human, UniProt Q01973 30-406, biotinylated with EZ-Link Sulfo-NHS-LC-Biotin at a 1:5 molar ratio); assay: ELISA, captured construct, biotinylated ROR1 titrated
T4 construct: Acro Biosystems cat; whole entry named; also called b-ROR1; soluble b-ROR1
Experimental: To measure the binding of bispecific constructs to soluble ROR1, a 96-well Costar-3366 plate was coated with 50 μL/well of 2 μg/mL goat anti-human kappa (Southern Biotech cat. #2060-01) in PBS overnight at 4° C. The plate was rinsed once with PBS-T, blocked with 100 μL/well 5% M-P for 1 h at 25° C., rinsed once with PBS-T, and 2 μg/mL of the bispecific binding molecule was added and incubated for 1 h at 25° C. The plate was washed three times with PBS-T. Biotinylated ROR1 was diluted serially, 3-fold in 5% M-P and was incubated for 1 h at 25° C. (50 μL/well). The plate was washed three times with PBS-T. To detect the binding of b-ROR1, 50 μL/well Neutravidin-HRP (Pierce cat. #31030) diluted 1:5000 in 1% BSA-PBS was added for 1 h at 25° C. The plate was washed three times with PBS-T, then developed with 50 μL/well 1-Step Ultra TMB-ELISA (Thermo Scientific cat. #34028). The reaction was terminated by the addition of 2 N H₂SO₄ and the A450 was determined using a Spectramax plate reader.
The stronger binding observed with bivalent constructs versus monovalent constructs in cell assays and ELISAs in which the antigen is immobilized is consistent with an avidity effect. To determine if this was the case, binding to soluble monomeric ROR1 was assessed by immobilizing the bispecific binding molecules on a microtiter plate coated with goat anti-human kappa antibody and titrating biotinylated RORL. All bispecific binding molecules were active in this format (FIG. 7), and in most cases, there were no notable differences between monovalent and bivalent constructs.

T4 sequence (Q01973 30-406 limits assumed): as above

Kd | Binder
0.105 nM | B2
0.109 nM | B1
0.147 nM | B4
0.082 nM | B5
0.07 nM | B3
0.157 nM | B6
0.073 nM | B7
0.094 nM | B8
